Experimental findings from paper PMC12947862, “Oligomerization enables the selective targeting of an intrinsically disordered region by a small molecule” (Science Advances, 2026) are described below.

B1: AR AD fragment transactivation unit 5 (Tau-5*; residues 330 to 448) [human (from the printed UniProt entry)] / itself (parent)
chain: AAGSSGTLELPSTLSLYKSGALDEAAAYQSRDYYNFPLALAGPPPPPPPPHPHARIKLENPLDYGSAWAAAAAQCRYGDLASLHGAGAAGPGSGSPSAAASSSWHTLFTAEEGQLYGPC

In this test the parent is B1. Put plainly: 2D 1H-15N NMR, concentration-dependent CSPs (self-association). The conditions noted are these: with itself; protein concentration from 25 to 400 μM; read off a plot.
For the variant chain 1 W104A H105A F108A, the response came out at 0.0068 p.p.m.
The figure for chain 1 L107P is 0.0065 p.p.m.
The figure for chain 1 G65A S66A G78A is 0.02 p.p.m; for chain 1 G78A it is 0.013 p.p.m.
Consider chain 1 A69P, for which the response turned out to be 0.005 p.p.m.
The figure for chain 1 C75Y is 0.019 p.p.m.
